Experimental data published in patent US20100086958A1, “NOVEL ENZYME” (priority 2008, published 2010).
Positions count from the first letter of the chain named. Names and notes keep the numbering of the source. Where two headings read alike, the source gives them in different places.

How the values were obtained:
[1] = cited from earlier work; for Km: read-out: Km NAD^+
[2] = cited from earlier work; for activity with NAD^+ / activity with NADP^+: unit = μmol formate oxidized per min, literature
[3] = Serov et al. (2002), cited from earlier work; for Km: read-out: Km NADP^+
[4] = Steady state kinetics for NADP^+ (FDH-catalysed formate oxidation); type: biochemical; settings: cofactor NADP^+, 0.18M formate
Procedure: (§1) BcenFDH1 (Bsp184FDH) and BspFDH2 (Bsp383FDH) catalyzed oxidation of formate to CO2 was monitored by UV/Vis spectrophotometry in a 96-well plate format. A series of eight solutions of formate (0-200 mM) were prepared by successive dilutions of a stock solution of 0.5 M sodium formate in 0.1 M sodium phosphate buffer, pH 7.0. From this series, 170 μL was transferred into wells of the 96-well plate. 10 μL of the FDHs from a stock solution (64.1 μM for BcenFDH1 (Bsp184FDH) and 78.0 μM for BspFDH2 (Bsp383FDH)) were added into each well and equilibrated for 3 min at 30° C. The reaction was initiated by addition of 20 μL of NAD^+ or NADP^+ solution from a freshly prepared stock (10 mM) using an 8-channel pipette. The plate was then immediately placed into the plate reader. The plate was shaken for 5 s to ensure thorough mixing, and then time-based measurements were recorded every 15 s for 10 min. The rate of formate oxidation was calculated using an extinction coefficient of 3.38 mM^−1 (for 200 μL), which was determined using NADH standards. Km and Vmax values were obtained by non-linear regression to the Michaelis-Menten equation (Eq.1 below) using Origin v7 (Microcal Software Inc.).
(§2) Similar procedure were used for determination of Michaelis-Menten parameters for NAD^+ and NADP^+. A series of eight solutions of cofactor (0-75 mM) were prepared by successive dilutions of stock solutions. […] of sodium formate solutions (180 mM in well) were transferred into wells of the 96-well plate. 10 μL of the FDHs from a stock solution (64.1 μM for BcenFDH1 (Bsp184FDH) and 78.0 μM for BspFDH2 (Bsp383FDH)) were added into each well and equilibrated for 3 min at 30° C. The reaction was initiated by addition of 20 μL of NAD^+ or NADP^+ solutions using an 8-channel pipette. The plate was then immediately placed into the plate reader. The plate was shaken for 5 s to ensure thorough mixing, and then time-based measurements were recorded every 15 s for 10 min. The rate of formate oxidation was calculated using an extinction coefficient of 3.38 mM^−1 (for 200 μL), which was determined using NADH standards. Km and Vmax values were obtained by non-linear regression to the Michaelis-Menten equation as before.

[5] = Steady state kinetics for formate oxidation; type: biochemical; settings: formate oxidation with NAD^+
Procedure: as §1

[6] = Steady state kinetics for NAD^+ (FDH-catalysed formate oxidation); type: biochemical
Procedure: as §1, §2

[7] = 0.25 M formate, Serov et al. (2002)
[8] = 0.5 M formate, Serov et al. (2002)

B1: PseFDH: FDH from Pseudomonas sp. 101, Seq ID No: 3 (protein, listed as Pseudomonas sp.)
chain: MAKVLCVLYDDPVDGYPKTYARDDLPKIDHYPGGQTLPTPKAIDFTPGQLLGSVSGELGLRKYLESNGHTLVVTSDKDGPDSVFERELVDADVVISQPFWPAYLTPERIAKAKNLKLALTAGIGSDHVDLQSAIDRNVTVAEVTYCNSISVAEHVVMMILSLVRNYLPSHEWARKGGWNIADCVSHAYDLEAMHVGTVAAGRIGLAVLRRLAPFDVHLHYTDRHRLPESVEKELNLTWHATREDMYPVCDVVTLNCPLHPETEHMINDETLKLFKRGAYIVNTARGKLCDRDAVARALESGRLAGYAGDVWFPQPAPKDHPWRTMPYNGMTPHISGTTLTAQARYAAGTR
[1]; data from Serov et al. (2002)
  kcat NAD^+: 10.0 ± 0.6 s⁻¹
  Km: 0.06 ± 0.005 mM
[2]; Tishkov et al. (1991)
  formate oxidation, times more effectively with NAD^+ than with NADP^+: 2400 times
[2]
  activity with NAD^+: 6-8 U/mg

B2: SceFDH: FDH from S. cerevisiae, Seq ID No: 4 (protein, listed as Saccharomyces cerevisiae)
chain: MSKGKVLLVLYEGGKHAEEQEKLLGCIENELGIRNFIEEQGYELVTTIDKDPEPTSTVDRELKDAEIVITTPFFPAYISRNRIAEAPNLKLCVTAGVGSDHVDLEAANERKITVTEVTGSNVVSVAEHVMATILVLIRNYNGGHQQAINGEWDIAGVAKNEYDLEDKIISTVGAGRIGYRVLERLVAFNPKKLLYYDYQELPAEAINRLNEASKLFNGRGDIVQRVEKLEDMVAQSDVVTINCPLHKDSRGLFNKKLISHMKDGAYLVNTARGAICVAEDVAEAVKSGKLAGYGGDVWDKQPAPKDHPWRTMDNKDHVGNAMTVHISGTSLDAQKRYAQGVKNILNSYFSKKFDYRPQDIIVQN
[1]; data from Serov et al. (2002)
  kcat NAD^+: 6.5 ± 0.4 s⁻¹
  Km: 0.036 ± 0.005 mM

B3: D197A/Y198R SceFDH: D197A/Y198R mutant of S. cerevisiae FDH, data from Serov et al. (2002) (protein, UniProt Q08911 1-376, looked up, variant D197A Y198R)
Formate dehydrogenase 1: MSKGKVLLVLYEGGKHAEEQEKLLGCIENELGIRNFIEEQGYELVTTIDKDPEPTSTVDRELKDAEIVITTPFFPAYISRNRIAEAPNLKLCVTAGVGSDHVDLEAANERKITVTEVTGSNVVSVAEHVMATILVLIRNYNGGHQQAINGEWDIAGVAKNEYDLEDKIISTVGAGRIGYRVLERLVAFNPKKLLYYARQELPAEAINRLNEASKLFNGRGDIVQRVEKLEDMVAQSDVVTINCPLHKDSRGLFNKKLISHMKDGAYLVNTARGAICVAEDVAEAVKSGKLAGYGGDVWDKQPAPKDHPWRTMDNKDHVGNAMTVHISGTSLDAQKRYAQGVKNILNSYFSKKFDYRPQDIIVQNGSYATRAYGQKK
[3]; 0.25 M formate
  kcat NADP^+: 0.13 ± 0.01 s⁻¹
  Km: 4.5 ± 0.5 mM
[3]; 0.5 M formate
  kcat NADP^+: 0.16 ± 0.02 s⁻¹
  Km: 7.6 ± 0.9 mM
[1]; [7]
  kcat NAD^+: 0.095 ± 0.01 s⁻¹
  Km: 7.6 ± 0.8 mM
[1]; [8]
  kcat NAD^+: 0.12 ± 0.02 s⁻¹
  Km: 8.4 ± 0.9 mM

B4: CmetFDH: NADH-dependent wild-type FDH from Candida methylica, Seq ID No: 6 (protein, listed as Candida methylica)
chain: MKIVLVLYDAGKHAADEEKLYGCTENKLGIANWLKDQGHELITTSDKEGETSELDKHIPDADIIITTPFHPAYITKERLDKAKNLKSVVVAGVGSDHIDLDYINQTGKKISVLEVTGSNVVSVAEHVVMTMLVLVRNFVPAHEQIINHDWEVAAIAKDAYDIEGKTIATIGAGRIGYRVLERLLPFNPKELLYYDYQALPKEAEEKVGARRVENIEELVAQADIVTVNAPLHAGTKGLINKELLSKFKKGAWLVNTARGAICVAEDVAAALESGQLRGYGGDVWFPQPAPKDHPWRDMRNKYGAGNAMTPHYSGTTLDAQTRYAEGTKNILESFFTGKFDYRPQDIILLNGEYVTKAYGKHDKK
[4]
  Km: 7 ± 1.4 mM
  kcat NADP^+: 0.005 ± 0 s⁻¹
[5]
  Km: 8.29 ± 1 mM
  kcat: 6.9875 ± 0.2928 s⁻¹
[6]
  formate oxidation, times more effective with NAD^+ than with NADP^+: 1.7×10^4 times
[6]; cofactor NAD^+, 0.18M formate
  Km: 0.2 mM
  kcat NAD^+: 1.67 ± 0.033 s⁻¹

B5: C. bodinii D195S: D195S mutant of C. bodinii FDH (protein, UniProt O13437 1-364, looked up, variant D195S)
Formate dehydrogenase: B4 chain with S87L, D195S
[2]
  activity with NADP^+: 0.083 U/mg
  activity with NAD^+: 1.5 U/mg

B6: C. bodinii D195S/Y196H/K356T: D195S/Y196H/K356T mutant of C. bodinii FDH (protein, UniProt O13437 1-364, looked up, variant D195S Y196H K356T)
Formate dehydrogenase: B4 chain with S87L, D195S, Y196H, K356T
[2]
  activity with NADP^+: 0.36 U/mg
  activity with NAD^+: 1.3 U/mg

B7: C. bodinii D195S/Y196H: D195S/Y196H mutant of C. bodinii FDH (protein, UniProt O13437 1-364, looked up, variant D195S Y196H)
Formate dehydrogenase: B4 chain with S87L, D195S, Y196H
[2]
  activity with NADP^+: 0.19 U/mg
  activity with NAD^+: 1.3 U/mg
